Kd and percent decrease of the DNMT3A1 UDR association response data for two substances are collected here from publication PMC11266573.

Assay [1] has as its target H2AK119ub1-modified nucleosome core particle (NCP) (Xenopus | not stated) (UniProt P0CG47). The assay is described as follows: BLI; biotin-labeled nucleosomes immobilised on streptavidin (SA) XT biosensors (Gator), protein in solution; 30 °C, 1000 rpm; 20 mM Tris-HCl pH 7.5, 50 mM NaCl, 1 mM DTT, 0.01% Tween-20; 3 min association, 6 min dissociation. On the technique in general: Biolayer interferometry detects binding as a change in optical thickness at a sensor tip.

Assay [2] has the same target. The assay can be described thus: BLI; competition: DNMT3A1 UDR loaded to biosensors pre-loaded with H2AK119ub1-modified NCP and various concentrations of tag-free JARID2(1-60).

In general, Kd refers to a measure of binding affinity in units of concentration. A high value points to weaker binding.

In assay [1], “GST-tagged N-terminal segment of JARID2 (residues 1–60) (from UniProt Q92833 1-60) (domain or fragment)” gave a Kd of 250 nM. This counts as sub-micromolar.

“tag-free JARID2 N-terminal segment (residues 1–60) (from UniProt Q92833 1-60) (domain or fragment)”: in assay [2], the percent decrease of the DNMT3A1 UDR association response at a JARID2(1-60):DNMT3A1 UDR molar ratio of 32:1 turned out to be 40%.
